Reference: IntAct's records for PubMed 31262713

B1: Protein Niban 2 (Homo sapiens), Q96TA1 (parent)
chain: MGDVLSTHLDDARRQHIAEKTGKILTEFLQFYEDQYGVALFNSMRHEIEGTGLPQAQLLWRKVPLDERIVFSGNLFQHQEDSKKWRNRFSLVPHNYGLVLYENKAAYERQVPPRAVINSAGYKILTSVDQYLELIGNSLPGTTAKSGSAPILKCPTQFPLILWHPYARHYYFCMMTEAEQDKWQAVLQDCIRHCNNGIPEDSKVEGPAFTDAIRMYRQSKELYGTWEMLCGNEVQILSNLVMEELGPELKAELGPRLKGKPQERQRQWIQISDAVYHMVYEQAKARFEEVLSKVQQVQPAMQAVIRTDMDQIITSKEHLASKIRAFILPKAEVCVRNHVQPYIPSILEALMVPTSQGFTEVRDVFFKEVTDMNLNVINEGGIDKLGEYMEKLSRLAYHPLKMQSCYEKMESLRLDGLQQRFDVSSTSVFKQRAQIHMREQMDNAVYTFETLLHQELGKGPTKEELCKSIQRVLERVLKKYDYDSSSVRKRFFREALLQISIPFLLKKLAPTCKSELPRFQELIFEDFARFILVENTYEEVVLQTVMKDILQAVKEAAVQRKHNLYRDSMVMHNSDPNLHLLAEGAPIDWGEEYSNSGGGGSPSPSTPESATLSEKRRRAKQVVSVVQDEEVGLPFEASPESPPPASPDGVTEIRGLLAQGLRPESPPPAGPLLNGAPAGESPQPKAAPEASSPPASPLQHLLPGKAVDLGPPKPSDQETGEQVSSPSSHPALHTTTEDSAGVQTEF

How the values were obtained:
[1] = variants of: B1; conditions: with keap1_human KEAP1, Q14145
[2] = variants of: B1; conditions: with keap1_human KEAP1, Q14145; remark: listed apart in the source

keap1_human KEAP1, Q14145, sequence (Q14145 whole entry): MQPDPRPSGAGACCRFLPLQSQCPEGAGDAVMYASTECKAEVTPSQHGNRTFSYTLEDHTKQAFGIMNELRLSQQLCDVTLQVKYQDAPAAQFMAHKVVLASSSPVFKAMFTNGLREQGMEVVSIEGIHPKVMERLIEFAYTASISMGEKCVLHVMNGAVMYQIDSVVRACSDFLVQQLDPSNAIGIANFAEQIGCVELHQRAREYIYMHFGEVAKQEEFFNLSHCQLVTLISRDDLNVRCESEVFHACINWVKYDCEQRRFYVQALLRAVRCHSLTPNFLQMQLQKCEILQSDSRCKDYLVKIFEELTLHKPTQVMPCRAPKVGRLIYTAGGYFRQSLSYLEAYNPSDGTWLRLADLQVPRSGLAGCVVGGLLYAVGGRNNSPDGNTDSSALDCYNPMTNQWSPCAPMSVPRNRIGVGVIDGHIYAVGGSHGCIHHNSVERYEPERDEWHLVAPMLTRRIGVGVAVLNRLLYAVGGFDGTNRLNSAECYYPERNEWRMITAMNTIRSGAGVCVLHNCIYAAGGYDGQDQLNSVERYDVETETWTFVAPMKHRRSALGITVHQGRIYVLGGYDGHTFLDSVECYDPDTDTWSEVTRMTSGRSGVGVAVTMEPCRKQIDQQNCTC

| Variant | effect of a mutation on the interaction [1] | effect of a mutation on the interaction [2] |
| --- | --- | --- |
| G710A | with no effect | disrupting interaction strength |
| G710A;E718A;T719A | disrupting interaction strength | disrupting interaction strength |
| E718A;T719A | disrupting interaction strength | – |
